The results in this text go back to article PMC6395645.

Test [1] deals with soluble type-I collagen (UniProt P02454). Nature of the test: ELISA; collagen-binding ELISA; soluble type-I collagen immobilised on plates, saliva of 20 TG mosquitoes (holds mDsRed-8H7scFv) applied 1 h at room temperature; quantified against Trx-AAPPex1-4.
For test [2] the target is unchanged. Nature of the test: ELISA; collagen-binding ELISA; soluble type-I collagen immobilised on plates, salivary gland homogenates of 20 WT mosquitoes applied 1 h at room temperature; quantified against Trx-AAPPex1-4.
Test [3] shares this target. Kind of test: ELISA; collagen-binding ELISA; soluble type-I collagen immobilised on plates, salivary gland homogenates of 20 TG mosquitoes (hold mDsRed-8H7scFv) applied 1 h at room temperature; quantified against Trx-AAPPex1-4. A general note: In an ELISA, binding on a coated surface is turned into a signal by an enzyme label.
Test [4] has the same target. Kind of test: ELISA; collagen-binding ELISA; soluble type-I collagen immobilised on plates (7.5 ug/ml, 100 ul/well), saliva of 20 WT mosquitoes applied 1 h at room temperature; quantified against Trx-AAPPex1-4.

Chain of soluble type-I collagen (P02454 152-1207, chain 1 of 2): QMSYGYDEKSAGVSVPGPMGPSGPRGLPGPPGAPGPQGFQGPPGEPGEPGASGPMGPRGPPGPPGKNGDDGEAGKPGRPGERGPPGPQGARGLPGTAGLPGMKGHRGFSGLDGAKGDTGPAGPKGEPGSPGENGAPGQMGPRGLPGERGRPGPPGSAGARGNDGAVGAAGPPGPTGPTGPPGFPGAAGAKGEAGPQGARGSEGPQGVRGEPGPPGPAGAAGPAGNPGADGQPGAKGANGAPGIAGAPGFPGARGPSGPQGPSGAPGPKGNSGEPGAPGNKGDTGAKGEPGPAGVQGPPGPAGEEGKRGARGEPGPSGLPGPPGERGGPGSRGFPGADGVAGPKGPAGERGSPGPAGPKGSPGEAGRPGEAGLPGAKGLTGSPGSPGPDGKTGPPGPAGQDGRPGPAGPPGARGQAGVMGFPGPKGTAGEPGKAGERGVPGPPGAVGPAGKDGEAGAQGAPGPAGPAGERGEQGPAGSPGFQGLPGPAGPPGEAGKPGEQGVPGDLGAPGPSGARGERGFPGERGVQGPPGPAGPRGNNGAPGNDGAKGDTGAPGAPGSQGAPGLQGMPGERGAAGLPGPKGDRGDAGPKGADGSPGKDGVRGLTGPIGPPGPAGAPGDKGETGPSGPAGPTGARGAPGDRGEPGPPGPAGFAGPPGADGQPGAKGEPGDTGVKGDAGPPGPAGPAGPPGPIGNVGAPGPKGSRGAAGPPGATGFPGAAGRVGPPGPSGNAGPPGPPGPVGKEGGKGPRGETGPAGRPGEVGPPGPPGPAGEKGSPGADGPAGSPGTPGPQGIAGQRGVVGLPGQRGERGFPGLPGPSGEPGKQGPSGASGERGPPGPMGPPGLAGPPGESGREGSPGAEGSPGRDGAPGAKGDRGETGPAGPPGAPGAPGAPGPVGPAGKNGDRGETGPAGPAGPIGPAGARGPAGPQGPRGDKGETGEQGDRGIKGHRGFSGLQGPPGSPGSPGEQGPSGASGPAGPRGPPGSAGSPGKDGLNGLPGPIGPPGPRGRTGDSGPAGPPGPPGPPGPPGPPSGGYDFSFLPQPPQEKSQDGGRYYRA
Chain of soluble type-I collagen (P02466 86-1125, chain 2 of 2, further chain): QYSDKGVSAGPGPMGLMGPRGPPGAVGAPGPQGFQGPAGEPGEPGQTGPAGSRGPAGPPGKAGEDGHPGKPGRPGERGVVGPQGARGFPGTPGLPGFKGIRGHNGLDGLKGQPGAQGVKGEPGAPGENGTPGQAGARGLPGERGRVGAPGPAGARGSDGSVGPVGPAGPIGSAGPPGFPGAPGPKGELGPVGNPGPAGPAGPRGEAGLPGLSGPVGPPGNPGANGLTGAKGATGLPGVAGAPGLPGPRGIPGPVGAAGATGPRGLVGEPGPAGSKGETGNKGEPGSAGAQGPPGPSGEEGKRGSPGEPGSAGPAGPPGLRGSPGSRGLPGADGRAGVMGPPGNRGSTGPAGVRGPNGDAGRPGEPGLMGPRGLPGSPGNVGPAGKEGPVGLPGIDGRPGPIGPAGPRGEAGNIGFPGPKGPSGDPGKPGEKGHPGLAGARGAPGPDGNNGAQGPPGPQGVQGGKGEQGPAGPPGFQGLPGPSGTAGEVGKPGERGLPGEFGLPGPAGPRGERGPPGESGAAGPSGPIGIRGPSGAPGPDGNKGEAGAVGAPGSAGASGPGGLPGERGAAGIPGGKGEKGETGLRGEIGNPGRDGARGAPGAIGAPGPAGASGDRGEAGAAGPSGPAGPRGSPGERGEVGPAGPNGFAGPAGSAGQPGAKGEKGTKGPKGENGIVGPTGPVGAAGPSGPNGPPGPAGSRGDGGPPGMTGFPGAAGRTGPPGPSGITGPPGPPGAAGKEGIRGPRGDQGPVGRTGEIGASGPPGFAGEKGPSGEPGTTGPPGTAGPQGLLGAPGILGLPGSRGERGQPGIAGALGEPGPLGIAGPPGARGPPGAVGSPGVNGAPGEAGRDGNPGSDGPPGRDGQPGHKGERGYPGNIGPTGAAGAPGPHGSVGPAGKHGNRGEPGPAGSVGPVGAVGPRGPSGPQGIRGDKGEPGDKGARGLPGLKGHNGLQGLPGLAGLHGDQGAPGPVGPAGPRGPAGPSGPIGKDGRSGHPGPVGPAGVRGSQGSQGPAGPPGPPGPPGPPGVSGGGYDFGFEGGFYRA

For “Anopheline antiplatelet protein (AAPP) (from UniProt Q7YT37 20-269) (natural protein)”, in test [1], the amount of AAPP capable of binding to collagen, with mDsRed-8H7scFv present (saliva of 20 mosquitoes of each TG line) is less than 0.069 ng. This substance also came in with an amount of AAPP capable of binding to collagen (salivary glands of 20 WT mosquitoes) in test [2] of 233 ng. In test [3], the amount of AAPP capable of binding to collagen, with mDsRed-8H7scFv present (salivary glands of 20 TG-03 mosquitoes) came out at 11.4 ng; the amount of AAPP capable of binding to collagen, with mDsRed-8H7scFv present (salivary glands of 20 TG-30 mosquitoes) worked out at 9.95 ng; the amount of AAPP capable of binding to collagen, with mDsRed-8H7scFv present (salivary glands of 20 TG-37 mosquitoes) was 10.5 ng. Moreover, the amount of AAPP capable of binding to collagen (saliva of 20 WT mosquitoes) in test [4] came to 28.4 ng.
